7 molecules from patent US20120009190A1 (Amgen, published 2012) can be followed below.

Assay [1] addresses mouse IL-17RA (IL-17 receptor) on ST-2 cells (mouse) (UniProt Q60943). Put plainly: cell-based or functional assay.
Assay [2] deals with T1, huIL-17.Fc (huIL17 with N-terminal flag and huFC (IgG1)) (human, UniProt Q16552 24-155).
T1 construct: also called IL-17 fused to human Fc; not shown: human IgG1 Fc (huFC)
Put plainly: flow cytometry, huIL-17.Fc staining with anti-huIgG-APC. Here is the method: Cells were incubated with M750 or M177 anti-mouse IL-17RA followed by anti-rat PE (BD Pharmigen). To prepare huIL-17.Fc, a cDNA encoding huIL17, N-terminal flag and huFC (IgG1) was amplified by PCR and cloned into the Pdc409 vector. Secreted IL17.Fc was purified from transfected COS cells over a Protein A column and its concentration determined using a human Fc ELISA. For binding, 293 cells were blocked with anti-human IL-17RA (M202) and stained with huIL17.Fc followed by anti-hulgG-APC (Jackson Immunoresearch, West Grove, Pa.). Data were analyzed on a FACSCalibur with Cell Quest software (BD Biosciences). FRET data were obtained from three channel images using the macro of LSM FRET tool software (Zeiss AIM software, per standard techniques). A minimum of 50 regions of interest at the membrane were assessed for each condition. FRET efficiencies were calculated by the NFRET method and significance determined by t-test.
(In general: Flow cytometry measures light scatter and fluorescence of single cells or particles in a stream.)

The target of assay [3] is T2, IL-17RA FN1 domain fused to the Gal4 DNA binding domain (pGBKT7) (yeast, UniProt P04386 1-147, limits assumed).
T2 construct: Only the FN1 domain was used
Put plainly: yeast two-hybrid, growth on -Leu/-Trp/-Ade. On the procedure: The IL-17RA ECD, FN2, FN2/linker and FN1 domains were fused to the Ga14 DNA binding domain (BD) or activation domain (AD) in the Pgbkt7 and Pgadat7 yeast expression plasmids (BD Clontech). S. cerevisiae were transformed by standard methods, and growth on Leu-Trp-deficient plates or Leu-Trp-Ade-deficient plates was evaluated by colony counting. CARMA1 (provided by X. Lin, MD Anderson Cancer Center, Houston Tex.) was used a positive control.
To obtain the data presented Table 1, full length (FL) IL-17RA or the FN1, FN2/linker or FN2 domains were fused to the yeast Ga14 DNA binding domain (BD) or activation domain (AD) in the pGBKT7 and pGADT7 plasmids. S. cerevisiae were transformed with the indicated pairs of plasmids and growth on Leu-Trp-deficient plates (selecting for both plasmids) or Leu-Trp-Ade-deficient plates (selecting for each plasmid and an interaction) was evaluated. CARMA1 was a positive control. FL, full length. FN, fibronectin.

For assay [4], the target named is human IL-17RA on normal human foreskin fibroblasts (HFF) (human) (UniProt Q96F46). Put plainly: cell-based or functional assay.

Chain of mouse IL-17RA (IL-17 receptor) on ST-2 cells (mouse) (Q60943 32-864): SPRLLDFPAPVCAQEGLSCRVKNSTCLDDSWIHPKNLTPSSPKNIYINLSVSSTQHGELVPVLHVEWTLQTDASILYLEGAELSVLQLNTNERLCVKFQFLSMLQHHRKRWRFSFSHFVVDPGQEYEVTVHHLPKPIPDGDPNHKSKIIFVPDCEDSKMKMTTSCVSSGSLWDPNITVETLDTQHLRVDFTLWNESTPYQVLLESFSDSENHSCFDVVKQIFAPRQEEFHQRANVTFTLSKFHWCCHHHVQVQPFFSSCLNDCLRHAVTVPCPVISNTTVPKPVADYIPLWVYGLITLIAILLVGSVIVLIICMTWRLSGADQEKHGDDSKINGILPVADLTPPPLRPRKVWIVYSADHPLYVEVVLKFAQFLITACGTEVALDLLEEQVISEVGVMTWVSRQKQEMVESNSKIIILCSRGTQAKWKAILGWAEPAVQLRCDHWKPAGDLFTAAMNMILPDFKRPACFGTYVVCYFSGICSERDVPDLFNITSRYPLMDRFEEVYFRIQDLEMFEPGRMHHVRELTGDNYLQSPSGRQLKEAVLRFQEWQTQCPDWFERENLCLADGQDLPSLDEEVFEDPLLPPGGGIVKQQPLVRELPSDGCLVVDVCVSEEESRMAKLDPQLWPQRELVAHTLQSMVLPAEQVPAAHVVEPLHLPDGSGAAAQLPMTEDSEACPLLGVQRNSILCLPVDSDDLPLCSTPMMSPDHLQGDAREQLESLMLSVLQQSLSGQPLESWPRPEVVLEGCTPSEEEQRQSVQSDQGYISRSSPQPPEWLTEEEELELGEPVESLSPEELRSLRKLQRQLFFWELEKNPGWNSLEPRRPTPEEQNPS
T1 sequence (Q16552 other isoform, or with tags, fused parts or gaps limits assumed): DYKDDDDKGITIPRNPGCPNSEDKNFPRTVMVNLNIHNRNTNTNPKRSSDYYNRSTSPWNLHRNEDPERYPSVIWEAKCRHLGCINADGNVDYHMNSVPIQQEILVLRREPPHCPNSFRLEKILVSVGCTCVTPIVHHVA

Consider “muPLAD (murine PLAD construct, FN2 of mouse IL-17RA without the linker) (from UniProt Q60943 205-283) (receptor)”, for which, in assay [1], the IL-6 (ELISA) from ST-2 cells + IL-17A 10 ng/ml, muPLAD at 3 ug/ml is 2240 pg/mL; the IL-6 (ELISA) from ST-2 cells + IL-17A 10 ng/ml, muPLAD at 3 ug/ml (Example 9) amounted to 155 pg/mL; the IL-6 (ELISA) from ST-2 cells + IL-17A 10 ng/ml, muPLAD at 10 ug/ml worked out at 2530 pg/mL; the IL-6 (ELISA) from ST-2 cells + IL-17A 10 ng/ml, muPLAD at 10 ug/ml (Example 9) worked out at 125 pg/mL. In addition, in assay [1], the IL-6 (ELISA) from ST-2 cells + IL-17A 10 ng/ml, muPLAD at 30 ug/ml is 2040 pg/mL; the IL-6 (ELISA) from ST-2 cells + IL-17A 10 ng/ml, muPLAD at 30 ug/ml (Example 9) came out at 108 pg/mL; the IL-6 (ELISA) from ST-2 cells + IL-17A + TNFa 2 ng/ml, muPLAD at 3 ug/ml turned out to be 6980 pg/mL; the IL-6 (ELISA) from ST-2 cells + IL-17A + TNFa 2 ng/ml, muPLAD at 10 ug/ml worked out at 6980 pg/mL. For the same molecule, in assay [1], the IL-6 (ELISA) from ST-2 cells + IL-17A + TNFa 2 ng/ml, muPLAD at 30 ug/ml turned out to be 6980 pg/mL; the KC (Groα) (ELISA) from ST-2 cells + IL-17A 10 ng/ml, muPLAD at 3 ug/ml worked out at 6190 pg/mL; the KC (Groα) (ELISA) from ST-2 cells + IL-17A 10 ng/ml, muPLAD at 10 ug/ml stood at 6130 pg/mL; the KC (Groα) (ELISA) from ST-2 cells + IL-17A 10 ng/ml, muPLAD at 30 ug/ml was determined as 6100 pg/mL. For the same molecule, in assay [1], the KC (Groα) (ELISA) from ST-2 cells + IL-17A + TNFa, muPLAD at 3 ug/ml was found to be 6150 pg/mL; the KC (Groα) (ELISA) from ST-2 cells + IL-17A + TNFa, muPLAD at 10 ug/ml is 6460 pg/mL; the KC (Groα) (ELISA) from ST-2 cells + IL-17A + TNFa, muPLAD at 30 ug/ml is 6300 pg/mL.
Regarding “muPLAD-L (murine PLAD/Linker construct, linker and FN2 of mouse IL-17RA) (from UniProt Q60943 184-283) (receptor)”, in assay [1], the IL-6 (ELISA) from ST-2 cells + IL-17A 10 ng/ml, muPLAD-L at 3 ug/ml is 2710 pg/mL; the IL-6 (ELISA) from ST-2 cells + IL-17A 10 ng/ml, muPLAD-L at 3 ug/ml (Example 9) was 182 pg/mL; the IL-6 (ELISA) from ST-2 cells + IL-17A 10 ng/ml, muPLAD-L at 10 ug/ml is 2790 pg/mL; the IL-6 (ELISA) from ST-2 cells + IL-17A 10 ng/ml, muPLAD-L at 10 ug/ml (Example 9) was 110 pg/mL. Further, in assay [1], the IL-6 (ELISA) from ST-2 cells + IL-17A 10 ng/ml, muPLAD-L at 30 ug/ml was 1880 pg/mL; the IL-6 (ELISA) from ST-2 cells + IL-17A 10 ng/ml, muPLAD-L at 30 ug/ml (Example 9) was 110 pg/mL; the IL-6 (ELISA) from ST-2 cells + IL-17A + TNFa 2 ng/ml, muPLAD-L at 3 ug/ml is 7020 pg/mL; the IL-6 (ELISA) from ST-2 cells + IL-17A + TNFa 2 ng/ml, muPLAD-L at 10 ug/ml was found to be 7040 pg/mL. Further, in assay [1], the IL-6 (ELISA) from ST-2 cells + IL-17A + TNFa 2 ng/ml, muPLAD-L at 30 ug/ml was determined as 7180 pg/mL; the KC (Groα) (ELISA) from ST-2 cells + IL-17A 10 ng/ml, muPLAD-L at 3 ug/ml was determined as 5980 pg/mL; the KC (Groα) (ELISA) from ST-2 cells + IL-17A 10 ng/ml, muPLAD-L at 10 ug/ml stood at 5440 pg/mL; the KC (Groα) (ELISA) from ST-2 cells + IL-17A 10 ng/ml, muPLAD-L at 30 ug/ml stood at 6230 pg/mL. Also, in assay [1], the KC (Groα) (ELISA) from ST-2 cells + IL-17A + TNFa, muPLAD-L at 3 ug/ml turned out to be 5750 pg/mL; the KC (Groα) (ELISA) from ST-2 cells + IL-17A + TNFa, muPLAD-L at 10 ug/ml amounted to 5550 pg/mL; the KC (Groα) (ELISA) from ST-2 cells + IL-17A + TNFa, muPLAD-L at 30 ug/ml is 5500 pg/mL.

B1: FN2 domain construct of IL-17RA (lacking FN1 and the linker), expressed on cells (receptor)
chain: PNITVETLDTQHLRVDFTLWNESTPYQVLLESFSDSENHSCFDVVKQIFAPRQEEFHQRANVTFTLSKFHWCCHHHVQV
notes: not shown: transmembrane region, cytoplasmic part and any tag of the construct
Take B1: the binding result in assay [2] is reported as “no binding”.

B2: IL-17RA FN1 domain fused to the Gal4 activation domain (pGADT7) (other, not shown: large carriers)
chain: TPSSPKNIYINLSVSSTQHGELVPVLHVEWTLQTDASILYLEGAELSVLQLNTNERLCVKFQFLSMLQHHRKRWRFSFSHFVVDPGQEYEVTVHHLPKPIPDGDPNHKSKIIFVP
notes: Only the FN1 domain was used; Species is inferred as mouse
For the molecule B2, the binding result in assay [3] was “no binding”.

B3: IL-17R PLAD-LINKER-GSS-FH (recombinant human IL-17R PLAD-linker, first generation construct) (receptor)
chain: DCEHARMKVTTPCMSSGSLWDPNITVETLEAHQLRVSFTLWNESTHYQILLTSFPHMENHSCFEHMHHIPAPRPEEFHQRSNVTLTLRNLKGCCRHQVQ
Consider B3, for which, in assay [4], the GROα (ELISA) from HFF + 5 ng/mL huIL-17A, IL-17R PLAD-LINKER-GSS-FH at 0.032 ug/mL is 437 pg/mL; the GROα (ELISA) from HFF + 5 ng/mL huIL-17A, IL-17R PLAD-LINKER-GSS-FH at 0.16 ug/mL turned out to be 541 pg/mL; the GROα (ELISA) from HFF + 5 ng/mL huIL-17A, IL-17R PLAD-LINKER-GSS-FH at 0.8 ug/mL is 460 pg/mL; the GROα (ELISA) from HFF + 5 ng/mL huIL-17A, IL-17R PLAD-LINKER-GSS-FH at 4 ug/mL amounted to 381 pg/mL. In assay [4], the GROα (ELISA) from HFF + 5 ng/mL huIL-17A, IL-17R PLAD-LINKER-GSS-FH at 20 ug/mL is 310 pg/mL and the GROα (ELISA) from HFF + 5 ng/mL huIL-17A, IL-17R PLAD-LINKER-GSS-FH at 100 ug/mL was 315 pg/mL.

B4: IL-17R PLAD-mod-GSS-FH (recombinant human IL-17R PLAD without the linker, second generation construct) (receptor)
chain: PNITVETLEAHQLRVSFTLWNESTHYQILLTSFPHMENHSCFEHMHHIPAPRPEEFHQRSNVTLTLRNLKGCCRHQVQIQPFFSSCLNDCLRHSATVSCPEMPDTPEPIPDGSSDYKDDDDKGSSHHHHHH
For the molecule B4, in assay [4], the GROα (ELISA) from HFF + 5 ng/mL huIL-17A, IL-17R PLAD-mod-GSS-FH at 0.032 ug/mL is 467 pg/mL; the GROα (ELISA) from HFF + 5 ng/mL huIL-17A, IL-17R PLAD-mod-GSS-FH at 0.16 ug/mL was determined as 486 pg/mL; the GROα (ELISA) from HFF + 5 ng/mL huIL-17A, IL-17R PLAD-mod-GSS-FH at 0.8 ug/mL was 484 pg/mL; the GROα (ELISA) from HFF + 5 ng/mL huIL-17A, IL-17R PLAD-mod-GSS-FH at 4 ug/mL came out at 499 pg/mL. Moreover, in assay [4], the GROα (ELISA) from HFF + 5 ng/mL huIL-17A, IL-17R PLAD-mod-GSS-FH at 20 ug/mL was 440 pg/mL and the GROα (ELISA) from HFF + 5 ng/mL huIL-17A, IL-17R PLAD-mod-GSS-FH at 100 ug/mL turned out to be 411 pg/mL.

B5: IL-17R PLAD-GSS-FH (recombinant human IL-17R PLAD without the linker, first generation construct) (receptor)
chain: PNITVETLEAHQLRVSFTLWNESTHYQILLTSFPHMENHSCFEHMHHIPAPRPEEFHQRSNVTLTLRNLKGCCRHQVQ
Regarding B5, in assay [4], the GROα (ELISA) from HFF + 5 ng/mL huIL-17A, IL-17R PLAD-GSS-FH at 0.032 ug/mL is 460 pg/mL; the GROα (ELISA) from HFF + 5 ng/mL huIL-17A, IL-17R PLAD-GSS-FH at 0.16 ug/mL was determined as 463 pg/mL; the GROα (ELISA) from HFF + 5 ng/mL huIL-17A, IL-17R PLAD-GSS-FH at 0.8 ug/mL was determined as 471 pg/mL; the GROα (ELISA) from HFF + 5 ng/mL huIL-17A, IL-17R PLAD-GSS-FH at 4 ug/mL worked out at 420 pg/mL. In addition, in assay [4], the GROα (ELISA) from HFF + 5 ng/mL huIL-17A, IL-17R PLAD-GSS-FH at 20 ug/mL stood at 363 pg/mL and the GROα (ELISA) from HFF + 5 ng/mL huIL-17A, IL-17R PLAD-GSS-FH at 100 ug/mL was determined as 300 pg/mL.
